In patent publication US20050208041A1 (Bristol-Myers Squibb, published 2005):
Changes are numbered by the printed parent chain. Numbers in names are those of the source.

T1: IFNAR-1 on human cells (human, UniProt P17181 28-557)
T1 sequence (looked up): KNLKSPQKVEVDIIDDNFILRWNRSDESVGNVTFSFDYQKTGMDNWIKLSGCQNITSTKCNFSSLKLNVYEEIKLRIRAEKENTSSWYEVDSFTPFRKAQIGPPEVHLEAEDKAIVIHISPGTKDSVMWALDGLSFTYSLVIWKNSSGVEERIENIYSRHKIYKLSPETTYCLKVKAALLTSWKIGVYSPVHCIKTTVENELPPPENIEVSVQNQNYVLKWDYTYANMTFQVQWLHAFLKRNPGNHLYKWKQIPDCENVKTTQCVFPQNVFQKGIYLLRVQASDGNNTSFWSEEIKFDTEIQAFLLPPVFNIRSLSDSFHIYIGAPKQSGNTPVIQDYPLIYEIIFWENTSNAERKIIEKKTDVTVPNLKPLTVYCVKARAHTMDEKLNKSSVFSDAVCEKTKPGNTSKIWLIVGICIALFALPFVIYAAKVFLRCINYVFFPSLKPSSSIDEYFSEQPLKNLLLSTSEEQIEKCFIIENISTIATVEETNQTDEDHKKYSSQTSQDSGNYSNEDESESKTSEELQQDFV

T2: purified recombinant IFNAR-1 extracellular fragment (human, UniProt P17181 28-436)
T2 construct: extracellular domain; also called soluble IFNAR-1; soluble IFNAR
T2 sequence (looked up): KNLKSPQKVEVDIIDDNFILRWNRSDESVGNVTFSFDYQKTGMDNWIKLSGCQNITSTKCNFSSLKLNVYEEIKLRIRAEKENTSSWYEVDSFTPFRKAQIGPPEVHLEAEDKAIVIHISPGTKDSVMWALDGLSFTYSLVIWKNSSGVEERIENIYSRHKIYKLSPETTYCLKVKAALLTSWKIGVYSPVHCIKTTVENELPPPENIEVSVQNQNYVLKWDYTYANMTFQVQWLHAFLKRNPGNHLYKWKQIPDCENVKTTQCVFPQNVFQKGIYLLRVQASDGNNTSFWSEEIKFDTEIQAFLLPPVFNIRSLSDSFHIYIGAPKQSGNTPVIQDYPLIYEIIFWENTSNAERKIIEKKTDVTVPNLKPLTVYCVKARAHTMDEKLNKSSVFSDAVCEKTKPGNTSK

B1: DI M3-B K1C (h IgG1) (antibody, V domains shown)
VH: EVQLLESGGGLVQPGGSLRLSCAASGFTMSTSGMGIGWIRQTPGKGLEWVAHIWWDDDKYYNPSLKARFTISRDTSKNTLYLQMNSLRAEDTAVYYCARNYYPYDAWFDYWGQGTLVTVS
VL: DIQMTQSPSSLSASVGDRVTITCSASTSINSNHLHWYQQKPGKAPKLLIYRTSILASGVPSRFSGSGSGTSFTLTISSLQPEDFATYYCQQGSNIPFTFGQGTKVEIKR
B2: M3-11 (X = V) heavy chain with K1 light chain (antibody, V domains shown)
VH: B1 VH with A24F, M29L, I39V, T42A, A67S, L80V, Y110V
VL: DIQMTQSPSSLSASVGDRVTITCSASSSINSNHLHWYQQKPGKAPKLLIYRTSILASGVPSRFSGSGSGTSFTLTISSLQPEDFATYYCQQGSNIPFTFGQGTKVEIK
notes: Position counted within VH CDR3; also called M3-11 V
B3: M3-11 (X = W) heavy chain with K1 light chain (antibody, V domains shown)
VH: B1 VH with A24F, M29L, I39V, T42A, A67S, L80V, Y110W
VL: B2 VL
notes: Position counted within VH CDR3; also called M3-11 W
B4: M3-11 (X = T) heavy chain with K1 light chain (antibody, V domains shown)
VH: B1 VH with A24F, M29L, I39V, T42A, A67S, L80V, Y110T
VL: B2 VL
notes: Position counted within VH CDR3; also called M3-11 T
B5: H2K1 (antibody, V domains shown)
VH: QVTLKESGPALVKPTQTLTLTCTFSGFSLSTSGMGIGWIRQPPGKALEWLAHIWWDDDKYYNPSLKSRLTISRDTSKNQVVLTMTNMDPVDTATYYCGRNYYPYDAWFDYWGQGTLVTVS
VL: B1 VL with T27S
notes: Full-length antibody with human IgG constant regions; also called heavy chain H2 with light chain K1
B6: H2K6 (antibody, V domains shown)
VH: B5 VH
VL: EIVLTQSPDFQSVTPKEKVTITCSASSSINSNHLHWYQQKPGQSPKLLIYRTSILASGVPSRFSGSGSGTSFTLTINSLEAEDVATYYCQQGSNIPFTFGQGTKLEIKR
notes: Full-length antibody with human IgG constant regions; also called heavy chain H2 with light chain K6
B7: mouse-human chimeric antibody with 64G12 variable regions and human IgG4 kappa constant regions (antibody, V domains shown)
VH: QVTLKESGPGILKPSQTLSLTCSFSGFSLSTSGMGIGWIRQPSGKGLEWLAHIWWDDDKYYNPSLKSQLTISRDTSTNQVFLNITSVDTVDTATYYCGRNYYPYDAWFDYWGQGTLVTVS
VL: EIVLTQSPTTMAASPGEKITITCSASSSINSNHLHWYQQKPGFSPKVLIYRTSILASGVPTRFSGSGSGTSYSLTIGTMEAEDVATYYCQQGSNIPFTFGSGTELEIKR
notes: also called Chimeric IgG4; human IgG4 chimeric antibody
B8: DI M3 heavy chain with K1 light chain (antibody, human IgG4, V domains shown)
VH: B1 VH with A67S, R73K
VL: B1 VL with T27S
notes: also called DI M3 K1
B9: M3 heavy chain with DI K1 light chain (antibody, human IgG4, V domains shown)
VH: B1 VH with A24F, M29L, I39V, T42A, A67S, L80V
VL: B1 VL with V19A, T27S, Q38L, L47A, V59I, S71D, F84T
notes: also called M3 DI K1
B10: DI M3-B heavy chain with DI K1-C light chain (antibody, V domains shown)
VH: B1 VH
VL: B1 VL with Q38L, L47A, V59I, S71D, F84T
notes: also called DI M3-B DI K1-C
B11: M3 heavy chain with K1-C light chain (antibody, human IgG4, V domains shown)
VH: B1 VH with A24F, M29L, I39V, T42A, A67S, L80V
VL: B1 VL
notes: also called M3 K1-C
B12: DI M3-B heavy chain with K1-C light chain (Example 3) (antibody, V domains shown)
VH: B1 VH
VL: B1 VL
notes: also called DIM3-B K1-C; DI M3-B K1-C
B13: M3-B heavy chain with K1-C light chain (antibody, V domains shown)
VH: B1 VH with A24F, M29L, I39V, T42A, L80V
VL: B1 VL
notes: also called M3-B K1-C
B14: DI M3 heavy chain with K1-C light chain (antibody, V domains shown)
VH: B1 VH with A67S, R73K
VL: B1 VL
notes: also called DI M3 K1-C
B15: DI M3-B heavy chain with DI K1 light chain (antibody, V domains shown)
VH: B1 VH
VL: B1 VL with V19A, T27S, Q38L, L47A, V59I, S71D, F84T
notes: also called DI M3-B DI K1
B16: M3-B heavy chain with DI K1-C light chain (antibody, V domains shown)
VH: B1 VH with A24F, M29L, I39V, T42A, L80V
VL: B1 VL with Q38L, L47A, V59I, S71D, F84T
notes: also called M3-B DI K1-C
B17: DI M3-B heavy chain with K1 light chain (antibody, V domains shown)
VH: B1 VH
VL: B1 VL with T27S
notes: also called DI M3-B K1
B18: M3 heavy chain with DI K1-C light chain (antibody, V domains shown)
VH: B1 VH with A24F, M29L, I39V, T42A, A67S, L80V
VL: B1 VL with Q38L, L47A, V59I, S71D, F84T
notes: also called M3 DI K1-C
B19: M3-B heavy chain with K1 light chain (antibody, human IgG4, V domains shown)
VH: B1 VH with A24F, M29L, I39V, T42A, L80V
VL: B1 VL with T27S
notes: also called M3-B K1
B20: DI M3 heavy chain with DI K1 light chain (antibody, human IgG4, V domains shown)
VH: B1 VH with A67S, R73K
VL: B1 VL with V19A, T27S, Q38L, L47A, V59I, S71D, F84T
notes: also called DI M3 DI K1
B21: DI M3 heavy chain with DI K1-C light chain (antibody, V domains shown)
VH: B1 VH with A67S, R73K
VL: B1 VL with Q38L, L47A, V59I, S71D, F84T
notes: also called DI M3 DI K1-C
B22: M3-B heavy chain with DI K1 light chain (antibody, V domains shown)
VH: B1 VH with A24F, M29L, I39V, T42A, L80V
VL: B1 VL with V19A, T27S, Q38L, L47A, V59I, S71D, F84T
notes: also called M3-B DI K1

Target: T1, IFNAR-1 on human cells
Experiment: cell-based or functional assay

| Cell Proliferation (Daudi) IC50, cells cultured with interferon α2b [nM] | ISRE-RG Reporter (U937) IC50, interferon α2b [nM] | Binder |
| --- | --- | --- |
| 10 | 4.6 | B1 |

Target: T2, purified recombinant IFNAR-1 …
Experiment: Biacore, maximal association on IFNAR-1 relative to M3K1
From the text: Pools 4 and 11 were selected for further study and the individual antibodies in each pool were produced and expressed separately. The sequences of these individual antibodies were as shown in SEQ ID NO:12 of FIG. 1F and SEQ ID NO: 13 of FIG. 1G. The data is presented as maximal association relative to M3K1. […]

| % activity relative to M3K1 [%] | Binder |
| --- | --- |
| 108 | B2 |
| 70 | B3 |
| 82 | B4 |

Target: T2, purified recombinant IFNAR-1 …
Experiment: Biacore, IFNAR-1 extracellular fragment coupled to CM5 chip, antibody 1.75-80 nM
Method: Antibodies from clones 64G12, H2K6, H2K1, H3K6, and H3K1 were assayed by Biacore analysis (Biacore AB, Uppsala, Sweden) to determine binding kinetics. Purified recombinant IFNAR-1 extracellular fragment was coupled to the CM5 sensor chip @ 600 RU. Binding was measured by adding antibody at concentrations from 1.75-80 nM at a flow rate of 20 ul/min. The binding curves were fit to a Langmuir binding model using BIAevaluation software (Biacore AB, Uppsala, Sweden).

| Kd [nM] | Binder |
| --- | --- |
| 0.8 | B5 |
| 1.3 | B6 |
| 3.6 | B7 |

Target: T2, purified recombinant IFNAR-1 …
Experiment: Biacore, antibody on immobilized soluble IFNAR-1, maximal response, mean of four
Method: Additional combination variants heavy chain DI M3-B and light chain DI K1-C were also made. These combination variants were also tested for binding to IFNAR-1. […] Binding analysis was done by Biacore, with the antibody bound to immobilized soluble IFNAR-1. Maximal response was determined at two concentrations and values shown are mean of four determinations.

| % response relative to H3K1 [%] | Binder |
| --- | --- |
| 149 | B8 |
| 25 | B9 |
| 9 | B10 |
| 100 | B11 |
| 100 | B12 |
| 156 | B13 |
| 96 | B14 |
| 11 | B15 |
| 14 | B16 |
| 122 | B17 |
| 17 | B18 |
| 117 | B19 |
| 8 | B20 |
| 4 | B21 |
| 17 | B22 |

Target: T2, purified recombinant IFNAR-1 …
Experiment: Biacore, response on IFNAR-1 (flow cell 2) divided by response on anti-human IgG Fc (flow cell 4)
From the text: A series of antibodies were constructed with reduced numbers of potential T-cell epitopes. These included heavy chain variants M3-A and M3-B in which residues were changed in CDR regions and DI M3 in which framework residues were altered. De-immunized light chains were also constructed termed K1-C, K1-D, K1-E and DI K1. The antibodies were expressed and purified before analysis by Biacore. A Biacore chip was used with IFNAR-1 coated on Flow cell 2 at 690 RU and anti-human IgG Fc on flow cell 4 at 5000 RU. Binding of the antibody to IFNAR-1 relative to anti-human IgG Fc was determined by the ratio of response at flow cell 2 divided by flow cell 4 (Fc2/Fc4).

| % activity relative to H3K1 [%] | Fc2/Fc4 | Binder |
| --- | --- | --- |
| 137 | 0.41 | B8 |
| 57 | 0.17 | B9 |
| 97 | 0.29 | B11 |
| 103 | 0.31 | B19 |
| 20 | 0.06 | B20 |

Target: T2, purified recombinant IFNAR-1 …
Experiment: Biacore, antibody captured on anti-human IgG Fc, soluble IFNAR 25-400 nM, flow cell 2-1 low density capture

| Kd [nM] | koff [s⁻¹] | kon [M⁻¹ s⁻¹] | Binder |
| --- | --- | --- | --- |
| 0.502 | 2.82e-06 | 5610 | B12 |
| 7.47 | 4.1e-05 | 5490 | B13 |

Target: T2, purified recombinant IFNAR-1 …
Experiment: Biacore, antibody captured on anti-human IgG Fc, soluble IFNAR 25-400 nM, flow cell 4-3 higher density capture

| Kd [nM] | koff [s⁻¹] | kon [M⁻¹ s⁻¹] | Binder |
| --- | --- | --- | --- |
| 3.53 | 1.64e-05 | 4640 | B12 |
| 7.45 | 4.06e-05 | 5460 | B13 |
